According to PMC3913574:

Target: T1, recombinant CADM1-EC-Fc protein consisting of the extracellular fragment domain of CADM1 fused to the Fc region of mouse IgG (UniProt Q9BY67)
T1 sequence: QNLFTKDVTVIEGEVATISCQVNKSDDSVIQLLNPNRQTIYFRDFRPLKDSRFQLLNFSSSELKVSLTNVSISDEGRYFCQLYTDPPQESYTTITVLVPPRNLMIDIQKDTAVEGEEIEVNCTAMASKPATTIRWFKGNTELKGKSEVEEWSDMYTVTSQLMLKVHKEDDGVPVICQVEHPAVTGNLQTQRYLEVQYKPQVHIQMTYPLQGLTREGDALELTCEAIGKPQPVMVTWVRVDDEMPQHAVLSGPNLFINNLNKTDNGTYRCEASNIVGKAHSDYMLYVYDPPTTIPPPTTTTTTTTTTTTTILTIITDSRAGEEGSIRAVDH

B1: CADM1-GFP on MDCK cells (MDCK+CADM1-GFP) (natural protein)
chain: QNLFTKDVTVIEGEVATISCQVNKSDDSVIQLLNPNRQTIYFRDFRPLKDSRFQLLNFSSSELKVSLTNVSISDEGRYFCQLYTDPPQESYTTITVLVPPRNLMIDIQKDTAVEGEEIEVNCTAMASKPATTIRWFKGNTELKGKSEVEEWSDMYTVTSQLMLKVHKEDDGVPVICQVEHPAVTGNLQTQRYLEVQYKPQVHIQMTYPLQGLTREGDALELTCEAIGKPQPVMVTWVRVDDEMPQHAVLSGPNLFINNLNKTDNGTYRCEASNIVGKAHSDYMLYVYDPPTTIPPPTTTTTTTTTTTTTILTIITDSRAGEEGSIRAVDHAVIGGVVAVVVFAMLCLLIILGRYFARHKGTYFTHEAKGADDAADADTAIINAEGGQNNSEEKKEYFI
  cell spreading assay: average surface area of MDCK+CADM1-GFP cells on CADM1-EC-Fc-coated glass against the same cells on control IgG: 1.8 fold
